Test results taken from IntAct's records for PubMed 22327218.

These substances were tested against anm5_human PRMT5 (UniProt O14744).
anm5_human PRMT5, sequence (O14744 whole entry): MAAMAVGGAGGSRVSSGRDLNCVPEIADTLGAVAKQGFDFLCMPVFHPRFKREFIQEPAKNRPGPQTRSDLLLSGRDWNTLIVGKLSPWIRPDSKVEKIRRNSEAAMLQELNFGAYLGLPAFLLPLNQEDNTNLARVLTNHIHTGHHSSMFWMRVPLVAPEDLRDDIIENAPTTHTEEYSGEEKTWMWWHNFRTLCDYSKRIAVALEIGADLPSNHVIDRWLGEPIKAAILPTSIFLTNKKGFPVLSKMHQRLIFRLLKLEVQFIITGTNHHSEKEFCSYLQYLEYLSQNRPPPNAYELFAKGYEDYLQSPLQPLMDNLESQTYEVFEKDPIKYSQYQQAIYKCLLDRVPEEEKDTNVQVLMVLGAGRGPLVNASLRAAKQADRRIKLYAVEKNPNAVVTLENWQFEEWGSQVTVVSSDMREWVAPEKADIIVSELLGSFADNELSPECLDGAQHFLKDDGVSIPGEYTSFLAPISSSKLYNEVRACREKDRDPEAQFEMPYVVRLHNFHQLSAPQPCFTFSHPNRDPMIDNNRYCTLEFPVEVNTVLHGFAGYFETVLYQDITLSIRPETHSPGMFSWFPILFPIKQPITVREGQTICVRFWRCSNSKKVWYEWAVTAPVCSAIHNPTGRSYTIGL

Transcription factor E2F1 (Homo sapiens), Q01094 R111K, sequence (Q01094 whole entry R111K): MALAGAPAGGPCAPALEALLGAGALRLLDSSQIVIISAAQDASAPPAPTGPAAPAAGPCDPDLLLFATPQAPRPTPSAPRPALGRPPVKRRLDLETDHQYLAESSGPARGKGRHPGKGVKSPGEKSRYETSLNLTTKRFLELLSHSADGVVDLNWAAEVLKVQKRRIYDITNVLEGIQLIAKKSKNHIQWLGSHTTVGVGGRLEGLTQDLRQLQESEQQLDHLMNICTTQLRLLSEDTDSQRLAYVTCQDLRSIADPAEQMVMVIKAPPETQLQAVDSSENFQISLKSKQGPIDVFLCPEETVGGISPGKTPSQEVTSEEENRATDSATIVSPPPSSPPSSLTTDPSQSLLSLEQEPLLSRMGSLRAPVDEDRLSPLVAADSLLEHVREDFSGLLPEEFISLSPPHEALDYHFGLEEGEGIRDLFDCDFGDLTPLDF
Transcription factor E2F1 (Homo sapiens), Q01094 R113K, sequence (Q01094 whole entry R113K): as the sequence (Q01094 whole entry R111K) above, with K111R, R113K counted along it
Transcription factor E2F1 (Homo sapiens), Q01094 R109K, sequence (Q01094 whole entry R109K): as the sequence (Q01094 whole entry R111K) above, with R109K, K111R counted along it

Effect of a mutation on the interaction, disrupting interaction:
Transcription factor E2F1 (Homo sapiens), Q01094 R109K
Transcription factor E2F1 (Homo sapiens), Q01094 R111K
Transcription factor E2F1 (Homo sapiens), Q01094 R113K
